Assay results: patent publication US20250019432A1
Where a chain is given by its changes, count along the chain named. Values belong to the binder of their own block, whether it stands above or below them.

Columns and labels:
[1] = target: human siglec12 (human) (UniProt Q96PQ1); experiment: FACS U937
[2] = target: human siglec12 (human) (UniProt Q96PQ1); experiment: cell-based or functional assay
[3] = target: siglec6 with C-terminal FLAG tag on Expi 293 cells (UniProt O43699); experiment: flow cytometry, transfected Expi 293, 500 nM
[4] = target: siglec12 with C-terminal FLAG tag on Expi 293 cells (UniProt Q96PQ1); experiment: flow cytometry, transfected Expi 293, 500 nM
Sequence of siglec12 with C-terminal FLAG tag on Expi 293 cells (Q96PQ1 19-595): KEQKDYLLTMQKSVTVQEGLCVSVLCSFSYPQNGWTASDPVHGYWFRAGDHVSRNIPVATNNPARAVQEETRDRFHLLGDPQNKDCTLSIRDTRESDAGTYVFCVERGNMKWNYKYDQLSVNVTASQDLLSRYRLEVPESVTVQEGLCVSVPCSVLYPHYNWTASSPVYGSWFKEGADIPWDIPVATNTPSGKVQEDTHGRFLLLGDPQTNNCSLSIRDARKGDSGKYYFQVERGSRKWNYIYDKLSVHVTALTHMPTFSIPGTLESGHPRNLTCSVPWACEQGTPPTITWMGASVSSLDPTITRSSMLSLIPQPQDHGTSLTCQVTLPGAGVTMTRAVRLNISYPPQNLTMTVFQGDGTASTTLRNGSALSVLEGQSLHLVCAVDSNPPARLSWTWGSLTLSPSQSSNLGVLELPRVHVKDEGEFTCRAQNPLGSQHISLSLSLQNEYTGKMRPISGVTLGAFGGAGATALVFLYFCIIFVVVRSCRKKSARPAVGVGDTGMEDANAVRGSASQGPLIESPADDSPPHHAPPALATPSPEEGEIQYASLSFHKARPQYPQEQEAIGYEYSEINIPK

Sequence of siglec6 with C-terminal FLAG tag on Expi 293 cells (O43699 27-453 limits assumed): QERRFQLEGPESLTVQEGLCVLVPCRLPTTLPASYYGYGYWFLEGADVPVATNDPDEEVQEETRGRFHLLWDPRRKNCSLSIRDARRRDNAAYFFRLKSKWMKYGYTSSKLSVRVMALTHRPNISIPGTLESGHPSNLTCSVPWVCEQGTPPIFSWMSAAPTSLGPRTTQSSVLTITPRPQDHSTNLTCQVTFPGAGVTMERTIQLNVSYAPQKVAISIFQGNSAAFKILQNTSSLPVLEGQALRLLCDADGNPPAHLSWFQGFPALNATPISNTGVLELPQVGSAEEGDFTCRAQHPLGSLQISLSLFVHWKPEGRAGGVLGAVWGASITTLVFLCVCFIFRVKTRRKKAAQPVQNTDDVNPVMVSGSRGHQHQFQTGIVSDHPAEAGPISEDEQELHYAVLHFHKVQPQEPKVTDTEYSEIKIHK

B1: S0040 (antibody, V domains shown)
VH: QVQLVQSGAEVKKPGASVKVSCKASGYTFTSYDINWVRQATGQGLEWMGWMNPNSGNTGYAQNFQGRVTMTRNTSINTAYMELSSLRSEDTAVYYCTRGGPTLVRGVIIRDAFDFWGQGTMVTVSS
VL: EIVMTQSPATLSVSPGERATLSCRASQSVSNSFAWYQQKPGQAPRLLIYGAFTRATGIPARFSGSGSGTEFTLTISSLQSEDFAVYYCQQYKTWPLTFGGGTKVEIKR
Flow % Gated [1]: 6%
Flow Fluor MFI [1]: 111

B3: S0042 (antibody, V domains shown)
VH: QVQLVQSGTEVKKPGASVKVSCKVSGYTLSDLSIHWVRQAPGKGLEWMGGFEPEDGEIIYAQKFQGRVIMTEDTSTDTAYMKLSSLRSEDTAVYYCATDKRYFDWLLSGFDYWGQGTLVTVSS
VL: DIQLTQSPSFLSASVGDRVTITCRASQGISSYLAWYQQKPGKAPKLLIFAASTLQSGVPSRFSGSGSGTEFTLTISSLQPEDFATYYCQRLHSYPRTFGQGTKVEIKRA
Flow % Gated [1]: 4%
Flow Fluor MFI [1]: 107
% Internalization at 2 hours, U937 cells [2]: 66%
MFI [3]: 25.7
MFI [4]: 538

B5: S0023 (antibody, V domains shown)
VH: EVQLLESGGGLVQPGGSLRLSCAASGFTFSTFAMSWVRQAPGKGLEWVSTISGGGDSTYYADSVKGRFTISRDNSKNMMSLQMNSLRAVDTAVYYCVKGGGDEYFYYGMDVWGQGTTVTVSS
VL: DIQMTQSPSSLSASVGDRVTITCRASQGIRNDLGWYQQKPGKAPKRLIYSASSLQSGVPSRFSGSGSGTEFTLTISSLQPEDFATYYCLQHNSYPYTFGQGTPLDIKR
Flow % Gated [1]: 3%
Flow Fluor MFI [1]: 93
% Internalization at 2 hours, U937 cells [2]: 32%
MFI [3]: 29.3
MFI [4]: 484

Now from value to binder:

Flow % Gated [1]: 2%
Flow Fluor MFI [1]: 97
B2: S0103 (antibody, V domains shown)
VH: B1 VH with N73D, I76V, T97A, T102N
VL: B1 VL with T69I

Flow % Gated [1]: 79%
Flow Fluor MFI [1]: 368
% Internalization at 2 hours, U937 cells [2]: 58%
MFI of pH sensitive dye, Siglec12 complexes, 0 hours [2]: 20
MFI of pH sensitive dye, Siglec12 complexes, 4 hours [2]: 24.7
MFI of pH sensitive dye, Siglec12 complexes, 24 hours [2]: 26.5
Siglec12 % surface expression, 0 min [2]: 100%
Siglec12 % surface expression, 15 min [2]: 96%
Siglec12 % surface expression, 30 min [2]: 84%
Siglec12 % surface expression, 45 min [2]: 73%
Siglec12 % surface expression, 60 min [2]: 65%
Siglec12 % surface expression, 90 min [2]: 47%
Siglec12 % surface expression, 120 min [2]: 40%
MFI [3]: 29.8
MFI [4]: 912
B4: S0057 (antibody, V domains shown)
VH: QGQLVQSGAEVKKPGASVKVSCKASGYTFNNYGISWVRQAPGQGLEWMGWISAYNGFTRSTQKFQGRVTLTTDTSTSTAHMELRSLRSDDTAAYYCARDGGDGFDPWGQGTLVTVSS
VL: EIVLTQSPATLSLSPGERATLSCRASQSVSSFLAWYQQKPGQAPRLLIFDASNRATGIPARFSGSGSGTDFTLTISSLEPEDFAVYYCQQRSNWITFGQGTRLEIKRA
